T1: biotinylated recombinant human IL-12Rβ2 (produced in-house) (human, UniProt Q99665 24-622, random biotinylated)
T1 construct: also called hIL-12RB2; hIL12RB2
T1 sequence: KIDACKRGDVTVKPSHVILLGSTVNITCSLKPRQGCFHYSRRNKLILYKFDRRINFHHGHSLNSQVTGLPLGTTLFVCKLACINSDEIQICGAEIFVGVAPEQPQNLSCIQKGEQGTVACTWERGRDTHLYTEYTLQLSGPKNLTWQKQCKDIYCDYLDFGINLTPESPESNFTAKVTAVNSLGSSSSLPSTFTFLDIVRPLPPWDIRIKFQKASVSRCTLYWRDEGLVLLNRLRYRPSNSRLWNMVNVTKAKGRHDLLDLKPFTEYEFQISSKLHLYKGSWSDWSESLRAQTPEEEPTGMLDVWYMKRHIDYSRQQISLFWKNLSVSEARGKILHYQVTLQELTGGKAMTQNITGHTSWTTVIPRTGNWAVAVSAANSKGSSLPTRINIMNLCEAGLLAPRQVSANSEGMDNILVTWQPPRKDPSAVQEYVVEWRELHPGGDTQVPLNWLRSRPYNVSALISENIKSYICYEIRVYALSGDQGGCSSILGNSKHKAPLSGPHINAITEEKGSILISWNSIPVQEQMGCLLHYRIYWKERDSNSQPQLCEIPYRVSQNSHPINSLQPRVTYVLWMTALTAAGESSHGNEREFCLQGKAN

T2: biotinylated recombinant mouse IL-12Rβ2 (produced in-house) (mouse, UniProt P97378 24-637, random biotinylated)
T2 construct: also called mIL-12RB2; mIL12RB2
T2 sequence: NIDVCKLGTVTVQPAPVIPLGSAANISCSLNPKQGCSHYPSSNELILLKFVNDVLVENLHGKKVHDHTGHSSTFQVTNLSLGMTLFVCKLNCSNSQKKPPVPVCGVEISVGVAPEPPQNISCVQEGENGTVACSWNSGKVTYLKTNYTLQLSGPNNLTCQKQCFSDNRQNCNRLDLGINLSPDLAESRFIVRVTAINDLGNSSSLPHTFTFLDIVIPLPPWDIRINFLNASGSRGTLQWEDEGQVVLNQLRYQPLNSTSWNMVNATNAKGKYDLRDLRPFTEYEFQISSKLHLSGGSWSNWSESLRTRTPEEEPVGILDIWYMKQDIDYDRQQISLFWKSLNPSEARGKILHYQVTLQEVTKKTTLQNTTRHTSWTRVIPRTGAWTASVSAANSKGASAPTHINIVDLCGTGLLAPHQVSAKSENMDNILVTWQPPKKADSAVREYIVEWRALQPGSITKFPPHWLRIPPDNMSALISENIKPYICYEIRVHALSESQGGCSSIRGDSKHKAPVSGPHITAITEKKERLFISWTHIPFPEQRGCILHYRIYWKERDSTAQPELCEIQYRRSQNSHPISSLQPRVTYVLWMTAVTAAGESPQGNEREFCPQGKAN

T3: mouse IL-12Rβ2 expressed on cells (mouse, UniProt P97378 24-874)
T3 construct: HEK293T cells, stably transduced (cDNA NM_008354); also called mIL-12RB2
T3 sequence: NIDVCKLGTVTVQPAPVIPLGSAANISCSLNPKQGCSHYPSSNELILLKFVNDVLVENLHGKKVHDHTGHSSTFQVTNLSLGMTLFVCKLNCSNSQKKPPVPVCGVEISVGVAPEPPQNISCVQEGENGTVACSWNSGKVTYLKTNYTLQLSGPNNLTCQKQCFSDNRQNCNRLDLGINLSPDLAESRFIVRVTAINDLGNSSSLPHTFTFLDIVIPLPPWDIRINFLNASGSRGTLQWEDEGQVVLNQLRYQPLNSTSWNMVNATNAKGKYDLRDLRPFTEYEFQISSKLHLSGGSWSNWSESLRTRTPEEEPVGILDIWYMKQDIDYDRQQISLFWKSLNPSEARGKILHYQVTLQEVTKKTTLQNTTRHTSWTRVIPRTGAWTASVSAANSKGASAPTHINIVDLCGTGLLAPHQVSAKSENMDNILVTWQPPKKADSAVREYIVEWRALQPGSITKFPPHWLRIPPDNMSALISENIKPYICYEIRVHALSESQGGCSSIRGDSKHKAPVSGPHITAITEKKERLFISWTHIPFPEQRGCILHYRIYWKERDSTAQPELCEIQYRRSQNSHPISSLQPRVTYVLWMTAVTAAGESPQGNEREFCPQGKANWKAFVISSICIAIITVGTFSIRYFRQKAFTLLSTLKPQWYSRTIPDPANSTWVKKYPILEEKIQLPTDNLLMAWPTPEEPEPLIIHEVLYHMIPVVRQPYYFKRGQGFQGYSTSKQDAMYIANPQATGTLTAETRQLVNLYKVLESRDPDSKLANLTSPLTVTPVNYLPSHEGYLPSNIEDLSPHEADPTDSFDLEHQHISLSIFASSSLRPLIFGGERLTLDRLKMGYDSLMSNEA


Legend:
[1] = target: T1, biotinylated recombinant human IL-12Rβ2 …; experiment: BLI (Octet), P.E. VHH on immobilised biotinylated hIL-12RB2
[2] = target: T2, biotinylated recombinant mouse IL-12Rβ2 …; experiment: BLI (Octet), P.E. VHH on immobilised biotinylated mIL-12RB2
[3] = target: T3, mouse IL-12Rβ2 expressed on cells; experiment: flow cytometry, P.E. VHH on HEK293T cells stably expressing mIL-12RB2
[4] = target: T1, biotinylated recombinant human IL-12Rβ2 …; experiment: BLI (Octet), P.E. VHH on immobilised biotinylated hIL-12RB2, 1:1 model
[5] = target: T1, biotinylated recombinant human IL-12Rβ2 …; experiment: ELISA, P.E. VHH on biotinylated hIL-12RB2, signal ratio to control well
[6] = target: T2, biotinylated recombinant mouse IL-12Rβ2 …; experiment: ELISA, P.E. VHH on biotinylated mIL-12RB2, signal ratio to control well

Binder | Response [1] | Response [2] | % cells bound [3] [%] | dMFI [3] | koff [4] [s⁻¹] | ELISA hIL12RB2/control [5] | ELISA mIL12RB2/control [6]
anti-IL-12Rβ2 VHH clone 3CRHM99 (VHH, not shown: small tags and cut ends, tested as periplasmic extract; also called 21062) VHH: QVQLQESGGGLVQPGGSLRLSCAASGISSSRLHVGWFRQSPGKEREFVAAISLSGGTQAYTDSVKGRFTISGDNVKNTAYLQMNSLRPEDTAVYYCAARERFIWTWSDLTYDYWGQGTQVTVSS | 1.45 | 0.812 | 57.3 | 309 | 0.00634 | 4.24 | 5.24
anti-IL-12Rβ2 VHH clone 3CAHM11 (VHH, not shown: small tags and cut ends, tested as periplasmic extract) VHH: QVQLQESGGGLVQAGGSLRLSCAASGRTFNNYAMAWFRQAPGKEREFIAAITRSDTTLYIDSVKGRFTISRDNAKNTVALQMNSLKPEDTAVYYCAAGMPYSYSDYPRDSKYDYWGRGTQVTVSS | 1.4 | 1.03 | 56.9 | 316 | 0.00519 | 3.04 | 38.8
anti-IL-12Rβ2 VHH clone 3CRHM73 (VHH, not shown: small tags and cut ends, tested as periplasmic extract; also called 21060) VHH: QVQLQESGGGLVQAGGSLSLSCAASGSAFRLNFMGWYRQAPGKQRELVAAINSGGTEIYHDSVKGRFTISRDNADSTVWLQMNSLKPDDTAVYYCAADRGISWSKLAGGMDYWGKGTQVTVSS | 1.45 | 0.944 | 27.3 | 150 | 0.00605 | 6.9 | 26.3
anti-IL-12Rβ2 VHH clone 3CRHM14 (VHH, not shown: small tags and cut ends, tested as periplasmic extract) VHH: QVQLQESGGGLVQAGGSLRLSCAASGRTFSNYAMAWFRQAPGTEREFVAGLSGSGGDTEFYDDSVKGRFAISRDSAKNTVWLQMNSLKPEDTAVYYCAAATHVVVHYGLVRRRGTYDYWGQGTQVTVSS | 1.19 | 0.957 | 26.2 | 136 | 0.00532 | 3.11 | 25.1
